Our source for the decrease in ubiquitination level of HA-OGT-D4 against HA-OGT-WT in 293T cells transfected with Myc-Ub and Flag-CDC20 (anti-HA precipitates blotted with anti-Myc) values is paper PMC11261447.

This assay concerns the target HA-OGT-D4 (D-box mutant R351A/L354A) (UniProt O15294).

Turning to “Flag-CDC20 (from UniProt Q12834 1-499) (natural protein)”, the decrease in ubiquitination level of HA-OGT-D4 against HA-OGT-WT in 293T cells transfected with Myc-Ub and Flag-CDC20 (anti-HA precipitates blotted with anti-Myc) was determined as 50%.
